Earlier results as cited in publication PMC3350600.

Molecular target: PP1 (Homo sapiens) (UniProt P62136)
UniProt P62136, sequence (P62136 2-330): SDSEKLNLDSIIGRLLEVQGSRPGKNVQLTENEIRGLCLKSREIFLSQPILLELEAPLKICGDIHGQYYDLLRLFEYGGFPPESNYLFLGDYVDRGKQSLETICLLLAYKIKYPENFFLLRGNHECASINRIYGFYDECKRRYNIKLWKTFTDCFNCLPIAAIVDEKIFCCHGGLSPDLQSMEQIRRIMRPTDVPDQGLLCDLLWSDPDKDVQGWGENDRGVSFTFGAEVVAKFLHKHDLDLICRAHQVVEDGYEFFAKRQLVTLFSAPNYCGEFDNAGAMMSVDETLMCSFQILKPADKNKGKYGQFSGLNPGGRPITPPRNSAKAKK

For “Spinophilin PP1-binding domain (from UniProt O35274)”, the Kd is listed as 8 nM.
